Positions count from the first letter of the chain named. Names may count otherwise.
Legend:
Settings in all cases: both partners purified
Cll2 toxin = target: T1, Cll2 toxin (Centruroides limpidus); assay: SPR
T1 construct: source: purified from scorpion venom
T1 chain: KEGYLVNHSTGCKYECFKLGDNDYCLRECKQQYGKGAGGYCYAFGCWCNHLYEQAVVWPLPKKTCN

Cn2 toxin [1] = target: T2, Cn2 toxin (Centruroides noxius); assay: SPR
T2 construct: source: purified from scorpion venom

Cll1 toxin = target: T3, Cll1 toxin (Centruroides limpidus); assay: SPR
T3 construct: source: purified from scorpion venom
T3 chain: T1 chain with L5I, H8L, F17Y, N49T, N66T

Ct1a toxin = target: T4, Ct1a toxin (Centruroides tecomanus); assay: SPR
T4 construct: source: purified from scorpion venom
T4 chain: T1 chain with K30R, N49T

Css4 toxin = target: T5, Css4 toxin (Centruroides suffusus, UniProt P60266); assay: SPR
T5 construct: source: purified from scorpion venom

CeII9 toxin = target: T6, CeII9 toxin (Centruroides elegans)
T6 construct: also called Cell9; source: purified from scorpion venom
T6 chain: T1 chain with K30R, Q32K, N49T

Css2 toxin [2] = target: T7, Css2 toxin (Centruroides suffusus)
T7 construct: source: purified from scorpion venom
T7 chain: T1 chain with N7S, H8K, F17L, G36S, A37S, G45A, N49T, K62N

Cn2 toxin [3] = target: T2, Cn2 toxin; assay: SPR; remark: listed apart in the source
Css2 toxin [4] = target: T7, Css2 toxin; assay: SPR

B1: scFv 10FG2 (scFv, V domains shown)
VH: QVNLRESGGGLVQPGGSLRLSCAASGFSFGSYGMHWVRQAPGKGLEWVAVISYGGGSKYYADSVKGRFTISRDNSKNTLYLQMNSLRAEDTAVYYCAKDARDCLLCSDWTFDLWGRGTLVTVSS
VL: NFMLTQPHSASGTPGQRVTISCSGSSSNIGSNTVNWYRHLPGSAPELLIGSHNQRPSGVPDRFSGSKSGTSASLAISGLQSEDEADYYCAAWDDSTLGYVFGTGTKLTVL
notes: also called 10F5; scFv 10F5
Cll2 toxin
  Kd: 4.2 nM
  TR (time of residence): 18.5 min
  koff: 0.0009 s⁻¹
  kon: 220000 M⁻¹ s⁻¹
Cn2 toxin [1]
  Kd: 0.7 nM
  TR (time of residence): 163 min
  koff: 0.000102 s⁻¹
  kon: 150000 M⁻¹ s⁻¹
Cll1 toxin
  Kd: 0.23 nM
  TR (time of residence): 264 min
  koff: 6.3e-05 s⁻¹
  kon: 265000 M⁻¹ s⁻¹
Ct1a toxin
  Kd: 8 nM
  TR (time of residence): 16.7 min
  koff: 0.001 s⁻¹
  kon: 170000 M⁻¹ s⁻¹
Css4 toxin
  binding result: binds
CeII9 toxin
  Kd: 6.1 nM
  koff: 0.000925 s⁻¹
  kon: 150000 M⁻¹ s⁻¹
Css2 toxin [2]
  Kd: 2.75 nM
  koff: 0.00055 s⁻¹
  kon: 195000 M⁻¹ s⁻¹

B2: scFv 10F4 (scFv, V domains shown)
VH: B1 VH with T110N
VL: B1 VL
Cn2 toxin [3]
  binding result: binds
Css2 toxin [4]
  binding result: binds
Css4 toxin
  binding result: binds

B3: scFv 10F (scFv, V domains shown)
VH: B1 VH with S107A
VL: B1 VL with S25I, G65A
Cn2 toxin [3]
  binding result: binds

B4: scFv 10F1 (scFv, V domains shown)
VH: B1 VH with S107A
VL: B1 VL with S25I
notes: VH, linker (G125 to S139), VL on one chain; numbers run through the whole scFv; 10F with A204G; source: expression vector pSyn1, purified (Ni2+-NTA, Superdex 75 gel filtration), monomer
Cn2 toxin [3]
  binding result: binds
Css2 toxin [4]
  binding result: binds
Css4 toxin
  binding result: binds
